Source: article PMC5843810, “18th European Symposium on Radiopharmacy and Radiopharmaceuticals” (EJNMMI Radiopharmacy and Chemistry, 2016)
Primed or numbered codes have the meaning given here. Side-chain parts run from the residue outwards. [ ]: non-standard residue; d: D form. PEG7′ = not defined here; Pra = C#CC[C@H](N)C(=O)O; Tz = not defined here

T1: αvβ3 integrin receptors on tumor cells, P06756
T1 chain 1: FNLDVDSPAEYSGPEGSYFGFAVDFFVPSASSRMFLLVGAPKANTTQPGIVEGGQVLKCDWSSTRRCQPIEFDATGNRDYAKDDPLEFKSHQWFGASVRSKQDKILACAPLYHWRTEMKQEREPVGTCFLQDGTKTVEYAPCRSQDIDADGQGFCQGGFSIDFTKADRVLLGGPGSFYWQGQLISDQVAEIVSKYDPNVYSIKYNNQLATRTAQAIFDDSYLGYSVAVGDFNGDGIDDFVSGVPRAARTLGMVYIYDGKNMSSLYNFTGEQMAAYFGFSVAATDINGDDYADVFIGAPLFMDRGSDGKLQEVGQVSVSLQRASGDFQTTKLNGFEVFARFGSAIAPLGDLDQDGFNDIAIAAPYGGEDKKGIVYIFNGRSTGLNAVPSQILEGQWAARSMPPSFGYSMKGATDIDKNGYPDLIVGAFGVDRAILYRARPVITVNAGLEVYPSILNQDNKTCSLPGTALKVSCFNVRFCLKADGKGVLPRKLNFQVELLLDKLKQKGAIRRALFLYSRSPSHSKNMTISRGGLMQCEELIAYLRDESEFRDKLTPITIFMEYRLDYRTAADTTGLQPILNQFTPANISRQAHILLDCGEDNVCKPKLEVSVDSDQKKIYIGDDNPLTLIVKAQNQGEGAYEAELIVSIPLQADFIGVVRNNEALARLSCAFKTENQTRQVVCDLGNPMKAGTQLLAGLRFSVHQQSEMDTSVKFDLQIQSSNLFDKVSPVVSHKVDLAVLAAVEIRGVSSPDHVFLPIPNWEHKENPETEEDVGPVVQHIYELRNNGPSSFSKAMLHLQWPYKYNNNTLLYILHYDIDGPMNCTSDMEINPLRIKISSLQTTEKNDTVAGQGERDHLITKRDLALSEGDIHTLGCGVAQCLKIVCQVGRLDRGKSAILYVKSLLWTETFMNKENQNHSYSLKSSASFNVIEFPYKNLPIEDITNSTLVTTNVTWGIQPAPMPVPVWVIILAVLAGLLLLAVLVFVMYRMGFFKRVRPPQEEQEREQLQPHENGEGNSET
T1 chain 2: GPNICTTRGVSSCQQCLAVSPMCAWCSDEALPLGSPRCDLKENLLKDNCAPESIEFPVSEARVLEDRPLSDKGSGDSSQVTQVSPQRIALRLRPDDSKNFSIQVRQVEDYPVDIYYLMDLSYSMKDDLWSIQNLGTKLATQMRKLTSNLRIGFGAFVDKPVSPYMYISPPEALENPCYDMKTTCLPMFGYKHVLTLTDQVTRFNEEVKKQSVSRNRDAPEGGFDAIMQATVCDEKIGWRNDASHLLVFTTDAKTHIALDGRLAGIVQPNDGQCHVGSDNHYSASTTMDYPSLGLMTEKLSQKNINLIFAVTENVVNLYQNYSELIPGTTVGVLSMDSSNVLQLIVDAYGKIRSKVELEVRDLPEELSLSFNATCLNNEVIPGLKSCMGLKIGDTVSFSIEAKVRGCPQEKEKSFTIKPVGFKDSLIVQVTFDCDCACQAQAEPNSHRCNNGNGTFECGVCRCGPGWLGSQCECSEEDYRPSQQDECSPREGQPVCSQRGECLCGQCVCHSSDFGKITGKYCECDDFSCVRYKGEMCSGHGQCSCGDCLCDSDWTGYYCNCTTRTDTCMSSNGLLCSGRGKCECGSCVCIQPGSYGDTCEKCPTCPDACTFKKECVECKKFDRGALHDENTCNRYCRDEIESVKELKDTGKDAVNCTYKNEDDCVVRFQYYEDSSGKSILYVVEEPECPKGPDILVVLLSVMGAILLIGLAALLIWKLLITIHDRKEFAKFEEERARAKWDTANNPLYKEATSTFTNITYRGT

B1: FPyPEGCBT-c(RGDfK) (peptide)
peptide: cyclo(RGD[dF]K)
modifications: also: cysteine-modified, cysteine site not given here, FPyPEGCBT condensed with that cysteine, 18F in the tracer

Assays:
[1] = target: integrin αvβ3 receptor of αvβ3-positive melanoma tumors in C57BL/6 mice (UniProt P43406)
[2] = target: RGD-recognising integrins; experiment: standard binding assay on cells (IC50); U-87 MG and SKOV-3 cancer models; the competing ligand is not named
[3] = target: T1, αvβ3 integrin receptors on tumor cells, …; experiment: real-time quantification of cell binding with Ligand Tracer; 68Ga-labelled cyclo-RGD peptides on tumor cells (AR42J and U87MG named); details: remark: other sources report otherwise
[4] = target: RGD-recognising integrin receptors

Row | Binder | tumor uptake in C57BL/6 mice bearing αvβ3-positive melanoma tumors, maximum at 30 min p.i. (30, 60, 180 min); reduced to 50-60% by cold cRGDfK peptide [1] [%ID/g] | IC50 [2] [µM] | also measured
1 | cyclo(RGD[dF]K) (not fully specified (residue 5); also: 99mTc(CO)3 complex) [99mTc(CO)3-Pra-Tz-CH2-cRGDfK] | 3.01 | – | –
2 | cyclo(RGD[dF]K([PEG7′-Tz-Pra])) (reading uncertain; also: 99mTc(CO)3 complex) [99mTc(CO)3-Pra-Tz-PEG7-cRGDfK] | 4.11 | – | –
3 | cyclo(RGD[dF]V) [control c(RGDfV) peptide] | – | 0.6 | –
4 | cyclo(RGD[dF]K) (also: two c(RGDfK) copies on a Glu core, DOTA chelator, 68Ga label) [68Ga-DOTA-E-[c(RGDfK)2]] | – | – | retention on cells [3]: < 58%
5 | B1 | – | 3.08 | tumour uptake 1 h after injection in mice bearing subcutaneous SKOV-3 tumours [4]: 2.4 %ID/g; tumour uptake 1 h after injection in mice bearing subcutaneous U-87 MG tumours [4]: 2.9 %ID/g
